Self-aminoacylation data for 25 sequences are collected here from the supplement of paper PMC9233669.

Variants at the floor of the assay were thinned out.

One data set relates to biotinyl-Phe-oxazolone. The experiment in a line: self-aminoacylation, catalytic enhancement (BFO) (fold over background); higher = more active; k-Seq, kA / k0A0; sequences stand for … in GGGAAUGGAUCCACAUCUACGAAUUC…UUCACUGCAGACUUGACGAAGCUG
The method, boiled down:
(§1)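 Catalytic enhancement equals the median kA over the uncatalyzed rate, the latter read from the low-activity peak of a bimodal Gaussian fit. Values of kA came from fitting each sequence's fraction reacted to a pseudo-first-order model, with 1000 bootstraps. Reacted RNA was captured with streptavidin and quantified by triplicate qPCR and Illumina sequencing after 90 minutes at room temperature with 2–1250 μM biotinyl-aminoacyl-oxazolone and 0.43 μM mutagenized RNA pools bearing a 21-nt variable region.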

For the next data set, the system named is biotinyl-Ile-oxazolone. The experiment in a line: self-aminoacylation, catalytic enhancement (BIO) (fold over background); higher = more active; k-Seq, kA / k0A0; sequences stand for … in GGGAAUGGAUCCACAUCUACGAAUUC…UUCACUGCAGACUUGACGAAGCUG
The procedure, abridged:
as §1

The next data set concerns biotinyl-Met-oxazolone. The data set is described as follows: self-aminoacylation, catalytic enhancement (BMO) (fold over background); higher = more active; k-Seq, kA / k0A0; sequences stand for … in GGGAAUGGAUCCACAUCUACGAAUUC…UUCACUGCAGACUUGACGAAGCUG
The procedure, abridged:
as §1

A further data set deals with biotinyl-Val-oxazolone. The experiment in a line: self-aminoacylation, catalytic enhancement (BVO) (fold over background); higher = more active; k-Seq, kA / k0A0; sequences stand for … in GGGAAUGGAUCCACAUCUACGAAUUC…UUCACUGCAGACUUGACGAAGCUG
The method, boiled down: as §1

A further data set concerns biotinyl-Leu-oxazolone. The experiment in a line: self-aminoacylation, catalytic enhancement (BLO) (fold over background); higher = more active; k-Seq, kA / k0A0; sequences stand for … in GGGAAUGGAUCCACAUCUACGAAUUC…UUCACUGCAGACUUGACGAAGCUG
The procedure, abridged: as §1

A further data set concerns biotinyl-Trp-oxazolone. The data set is described as follows: self-aminoacylation, catalytic enhancement (BWO) (fold over background); higher = more active; k-Seq, kA / k0A0; sequences stand for … in GGGAAUGGAUCCACAUCUACGAAUUC…UUCACUGCAGACUUGACGAAGCUG
The procedure, abridged:
as §1

With “GUACUUCAAACAUUCGGUCUG [Fam1A.1 aminoacylation ribozyme variant]”, the self-aminoacylation in the data set with biotinyl-Phe-oxazolone stood at 6.13; with biotinyl-Ile-oxazolone, 1.63; with biotinyl-Met-oxazolone it was 1.6; in the data set with biotinyl-Val-oxazolone, 1.96; in the data set with biotinyl-Leu-oxazolone it was 1.66; with biotinyl-Trp-oxazolone it was 2.34.

Turning to “AUUCCCCUAGUUCAUCGGGUG [Fam2.2 aminoacylation ribozyme variant]”, the self-aminoacylation worked out at 56.5 in the data set on biotinyl-Phe-oxazolone; 6.72 in the data set on biotinyl-Ile-oxazolone; 7.78 in the data set on biotinyl-Met-oxazolone; 6.85 with biotinyl-Val-oxazolone; 10.1 in the data set on biotinyl-Leu-oxazolone; 10.2 in the data set with biotinyl-Trp-oxazolone.

Consider “AUUCUCCCAGGUCAUCGGGUG [Fam2.2 aminoacylation ribozyme variant]”, for which the self-aminoacylation in the data set with biotinyl-Phe-oxazolone was 90; with biotinyl-Ile-oxazolone, 6.87; in the data set with biotinyl-Met-oxazolone it was 10.2; in the data set on biotinyl-Val-oxazolone, 6.91; with biotinyl-Leu-oxazolone, 12.8; in the data set on biotinyl-Trp-oxazolone, 9.06.

As for “AUUCACGUAGGUCAUCCGGUG [Fam2.2 aminoacylation ribozyme variant]”, the self-aminoacylation with biotinyl-Phe-oxazolone came to 120; with biotinyl-Ile-oxazolone, 7.72; in the data set with biotinyl-Met-oxazolone, 13.2; in the data set with biotinyl-Val-oxazolone it was 8.57; in the data set on biotinyl-Leu-oxazolone, 17; in the data set on biotinyl-Trp-oxazolone, 12.1.

As to “CUUCUCCUAGGUCAUCGGGUG [Fam2.2 aminoacylation ribozyme variant]”, the self-aminoacylation was determined as 35.6 in the data set on biotinyl-Phe-oxazolone; 4.42 with biotinyl-Ile-oxazolone; 6.43 in the data set on biotinyl-Met-oxazolone; 4.48 in the data set with biotinyl-Val-oxazolone; 8.84 with biotinyl-Leu-oxazolone; 6.52 with biotinyl-Trp-oxazolone.

Regarding “ACUCGCCUAGGUCAUCGGGUG [Fam2.2 aminoacylation ribozyme variant]”, the self-aminoacylation in the data set on biotinyl-Phe-oxazolone was 62.9; with biotinyl-Ile-oxazolone, 6.84; in the data set with biotinyl-Met-oxazolone, 9.99; in the data set on biotinyl-Val-oxazolone, 6.73; in the data set on biotinyl-Leu-oxazolone, 11; in the data set on biotinyl-Trp-oxazolone it was 10.9.

Regarding “AUUACCCUGGUCACCUAGUGA [Fam2.1 aminoacylation ribozyme variant]”, the self-aminoacylation with biotinyl-Phe-oxazolone stood at 25.9; in the data set on biotinyl-Ile-oxazolone, 2.12; in the data set with biotinyl-Met-oxazolone, 4.99; in the data set with biotinyl-Val-oxazolone, 2.49; in the data set with biotinyl-Leu-oxazolone, 4.95; in the data set on biotinyl-Trp-oxazolone, 5.72.

In the case of “CUGCUUCAACCAAUCGGUCUG [Fam1A.1 aminoacylation ribozyme variant]”, the self-aminoacylation came to 79.4 in the data set with biotinyl-Phe-oxazolone; 1.31 with biotinyl-Ile-oxazolone; 1.41 in the data set on biotinyl-Met-oxazolone; 1.38 in the data set on biotinyl-Val-oxazolone; 2.45 with biotinyl-Leu-oxazolone; 43.2 in the data set on biotinyl-Trp-oxazolone.

As for “AUUACCCUGGUCCUCGGGUGA [Fam2.1 aminoacylation ribozyme variant]”, the self-aminoacylation in the data set on biotinyl-Phe-oxazolone came out at 69.6; in the data set on biotinyl-Ile-oxazolone, 5.18; in the data set with biotinyl-Met-oxazolone, 9.89; in the data set on biotinyl-Val-oxazolone it was 6.25; in the data set on biotinyl-Leu-oxazolone, 10.4; in the data set with biotinyl-Trp-oxazolone, 9.25.

For the sequence “AUCACCCUGGUCAUCCAGUGA [Fam2.1 aminoacylation ribozyme variant]”, the self-aminoacylation in the data set on biotinyl-Phe-oxazolone stood at 41.2; in the data set on biotinyl-Ile-oxazolone it was 4.34; in the data set on biotinyl-Met-oxazolone, 6.56; in the data set on biotinyl-Val-oxazolone, 3.61; with biotinyl-Leu-oxazolone, 7.91; in the data set on biotinyl-Trp-oxazolone it was 6.77.

With “AUUCACCUAGGUCUUCGGGUA [Fam2.2 aminoacylation ribozyme variant]”, the self-aminoacylation in the data set on biotinyl-Phe-oxazolone is 17.4; in the data set with biotinyl-Ile-oxazolone it was 3.31; with biotinyl-Met-oxazolone, 3.75; in the data set on biotinyl-Val-oxazolone it was 3.6; in the data set on biotinyl-Leu-oxazolone, 3.22; in the data set with biotinyl-Trp-oxazolone, 3.79.

On to “CCACACCUCAAGCUAUCGGUC [Fam1B.1 aminoacylation ribozyme variant]”, for which the self-aminoacylation in the data set on biotinyl-Phe-oxazolone came to 1.1; with biotinyl-Ile-oxazolone it was 1.37; in the data set with biotinyl-Met-oxazolone it was 1.21; in the data set with biotinyl-Val-oxazolone it was 1.27; with biotinyl-Leu-oxazolone, 1.18; in the data set with biotinyl-Trp-oxazolone, 0.809.

On to “AAUACCCUGGUUAUCGAGUGA [Fam2.1 aminoacylation ribozyme variant]”, for which the self-aminoacylation was 30.8 in the data set with biotinyl-Phe-oxazolone; 3.37 with biotinyl-Ile-oxazolone; 6.97 in the data set on biotinyl-Met-oxazolone; 3.59 in the data set on biotinyl-Val-oxazolone; 7.89 with biotinyl-Leu-oxazolone; 9.84 in the data set with biotinyl-Trp-oxazolone.

For the sequence “AUUUCCCUGGUCAUCGAAUGA [Fam2.1 aminoacylation ribozyme variant]”, the self-aminoacylation in the data set on biotinyl-Phe-oxazolone is 0.941; in the data set with biotinyl-Ile-oxazolone it was 1.09; in the data set on biotinyl-Met-oxazolone it was 1.02; in the data set with biotinyl-Val-oxazolone, 1.12; in the data set on biotinyl-Leu-oxazolone, 1.02; with biotinyl-Trp-oxazolone it was 0.88.

With “AUUACUCUGGUCAUUGAGUGA [Fam2.1 aminoacylation ribozyme variant]”, the self-aminoacylation with biotinyl-Phe-oxazolone came to 32.7; in the data set with biotinyl-Ile-oxazolone, 4.15; in the data set with biotinyl-Met-oxazolone it was 7.88; in the data set with biotinyl-Val-oxazolone, 3.61; in the data set with biotinyl-Leu-oxazolone, 8.45; in the data set with biotinyl-Trp-oxazolone, 9.3.

Consider “AUUCCGCUGGUCAUCGAGUGA [Fam2.1 aminoacylation ribozyme variant]”, for which the self-aminoacylation with biotinyl-Phe-oxazolone was found to be 45.4; with biotinyl-Ile-oxazolone, 3.34; in the data set with biotinyl-Met-oxazolone, 6.08; in the data set on biotinyl-Val-oxazolone, 3.7; in the data set on biotinyl-Leu-oxazolone it was 6.79; in the data set on biotinyl-Trp-oxazolone, 8.05.

In the case of “AAGUUUGCUUAUUGUCGCAAG [Fam3.1 aminoacylation ribozyme variant]”, the self-aminoacylation was determined as 0.903 in the data set on biotinyl-Phe-oxazolone; 0.771 in the data set on biotinyl-Ile-oxazolone; 0.641 in the data set on biotinyl-Met-oxazolone; 0.713 in the data set on biotinyl-Val-oxazolone; 0.686 in the data set with biotinyl-Leu-oxazolone; 0.97 with biotinyl-Trp-oxazolone.

For “CAACACUUCAAGCAAUCUGUC [Fam1B.1 aminoacylation ribozyme variant]”, the self-aminoacylation in the data set on biotinyl-Phe-oxazolone amounted to 0.588; in the data set on biotinyl-Ile-oxazolone it was 0.399; in the data set with biotinyl-Met-oxazolone, 0.396; with biotinyl-Val-oxazolone, 0.502; with biotinyl-Leu-oxazolone it was 0.362; in the data set on biotinyl-Trp-oxazolone it was 0.398.

Regarding “CUACUUCAAACAAUCGAUCGG [Fam1A.1 aminoacylation ribozyme variant]”, the self-aminoacylation in the data set on biotinyl-Phe-oxazolone was 0.743; in the data set on biotinyl-Ile-oxazolone, 0.647; in the data set on biotinyl-Met-oxazolone, 0.56; in the data set with biotinyl-Val-oxazolone, 0.73; with biotinyl-Leu-oxazolone, 0.721; in the data set on biotinyl-Trp-oxazolone, 0.676.

“AUUCAGCUAGGGCAUCGGGUG [Fam2.2 aminoacylation ribozyme variant]”: the self-aminoacylation stood at 64.3 in the data set on biotinyl-Phe-oxazolone; 4.72 in the data set with biotinyl-Ile-oxazolone; 6.69 with biotinyl-Met-oxazolone; 4.65 with biotinyl-Val-oxazolone; 7.92 in the data set with biotinyl-Leu-oxazolone; 6.75 in the data set with biotinyl-Trp-oxazolone.

For the sequence “CCACACAUCAAGCAAUCGAUC [Fam1B.1 aminoacylation ribozyme variant]”, the self-aminoacylation in the data set with biotinyl-Phe-oxazolone was 0.914; in the data set on biotinyl-Ile-oxazolone, 0.575; in the data set with biotinyl-Met-oxazolone, 0.439; with biotinyl-Val-oxazolone it was 0.748; with biotinyl-Leu-oxazolone, 0.581; in the data set with biotinyl-Trp-oxazolone, 0.513.

In the case of “UGUACCCUGGUCAUCGAGUGA [Fam2.1 aminoacylation ribozyme variant]”, the self-aminoacylation in the data set on biotinyl-Phe-oxazolone is 10.3; with biotinyl-Ile-oxazolone it was 4.06; with biotinyl-Met-oxazolone it was 5.72; with biotinyl-Val-oxazolone it was 3.66; in the data set on biotinyl-Leu-oxazolone, 7.2; in the data set on biotinyl-Trp-oxazolone, 8.02.

With “CCACACUUCAUGCAAUCGGUG [Fam1B.1 aminoacylation ribozyme variant]”, the self-aminoacylation in the data set on biotinyl-Phe-oxazolone came to 27; with biotinyl-Ile-oxazolone, 2.55; in the data set with biotinyl-Met-oxazolone, 4.27; with biotinyl-Val-oxazolone it was 2.65; with biotinyl-Leu-oxazolone, 5.5; with biotinyl-Trp-oxazolone, 4.65.

For the sequence “AUUCAUCUUGGUCAUCGGGUG [Fam2.2 aminoacylation ribozyme variant]”, the self-aminoacylation in the data set with biotinyl-Phe-oxazolone came out at 50.1; in the data set with biotinyl-Ile-oxazolone it was 4.97; with biotinyl-Met-oxazolone, 7.46; with biotinyl-Val-oxazolone it was 4.56; with biotinyl-Leu-oxazolone it was 9.58; in the data set with biotinyl-Trp-oxazolone, 7.39.

With “AUUAGCCUUGUCAUCGAGUGA [Fam2.1 aminoacylation ribozyme variant]”, the self-aminoacylation worked out at 6.72 in the data set with biotinyl-Phe-oxazolone; 2.85 in the data set on biotinyl-Ile-oxazolone; 3.73 in the data set on biotinyl-Met-oxazolone; 2.76 in the data set with biotinyl-Val-oxazolone; 3.97 in the data set with biotinyl-Leu-oxazolone; 4.07 in the data set with biotinyl-Trp-oxazolone.
